Source: the supplement of paper PMC12042874
± gives the uncertainty stated by the source.

Assay: amyloid nucleation score (Sup35N fusion, yeast selection) (log enrichment); library NNK2; higher = more nucleation; inactive = no reads after selection
How it was run: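 Nucleation score: DiMSum log enrichment of output over input reads, centred on the mode score of non-aggregating sequences. Only sequences with at least 100 input reads were kept. Reads came from Illumina sequencing of plasmid inserts before and after 7 days of growth at 30°C without adenine and uracil, in psi-negative yeast expressing Sup35N fused to peptides of 20 random codons after 24 hours of induction with 100 μM copper sulfate.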

## FLICGHCWGPNTYYNTSVLM
  amyloid nucleation score: 7.8 ± 0.061

## FLKGPTEECQLRPSLRTNLQ
  amyloid nucleation score: 0.069 ± 0.23

## FLKTKSFMVKMTGVNNQVFL
  amyloid nucleation score: 5.96 ± 0.071

## FLNNDRYRR
  amyloid nucleation score: -1.67 ± 0.78

## FLPYVIRRGWSCCPSGKWRN
  amyloid nucleation score: 0.03 ± 0.55

## FLRENLCTDVGLTHVCCTYT
  amyloid nucleation score: inactive

## FLRNPPYESTTQGGRPKGAH
  amyloid nucleation score: 0.134 ± 0.51

## FLSKFSCEVKTPDLMSCGKG
  amyloid nucleation score: 4.04 ± 0.096

## FLVFHPRDSMNI
  amyloid nucleation score: 1.49 ± 0.44

## FLVHCNILALNTCHLVYL
  amyloid nucleation score: 5.07 ± 0.089

## FLVLFASVPKEVPLAYRVVK
  amyloid nucleation score: -0.898 ± 0.61

## FMDRFLSWFCHE
  amyloid nucleation score: 1.26 ± 0.37

## FMELLYHSASYSARFTRKSR
  amyloid nucleation score: 2.69 ± 0.098

## FMIFDVGNSGKYLLSVS
  amyloid nucleation score: -0.774 ± 0.27

## FMLSVPNVDRFVRRMLGTPE
  amyloid nucleation score: 1.05 ± 0.42

## FMLVV
  amyloid nucleation score: inactive

## FMLYMRLCKFYYFFGS
  amyloid nucleation score: -1.29 ± 0.41

## FMRFARMCS
  amyloid nucleation score: 0.256 ± 0.16

## FMTNGFFVSLWFTCGDSVLS
  amyloid nucleation score: 5.68 ± 0.078

## FNCGASKNSLKNEGKW
  amyloid nucleation score: -0.925 ± 0.63

## FNIRSFICV
  amyloid nucleation score: inactive

## FNLADSTSSVTP
  amyloid nucleation score: 0.048 ± 0.65

## FNLLEVTRPPMRMMGMM
  amyloid nucleation score: 2.3 ± 0.076

## FPENDWL
  amyloid nucleation score: -0.552 ± 0.44

## FPFFLHLFNYLLVRCLTVGF
  amyloid nucleation score: inactive

## FPFSGFVDFSVLVLRYKGSP
  amyloid nucleation score: 1.82 ± 0.16

## FPLRCFTIFSMRASNF
  amyloid nucleation score: 0.615 ± 0.66

## FQIRT
  amyloid nucleation score: inactive

## FQMMCSIDFNKCLPWLFS
  amyloid nucleation score: inactive

## FQNITVYSFRATGVTGQRSC
  amyloid nucleation score: -0.447 ± 0.5

## FQRFVIK
  amyloid nucleation score: -2.12 ± 0.44

## FRFVEFNNSGNVCPLIFTLS
  amyloid nucleation score: -0.266 ± 0.65

## FRILFGFRCNLRGSSQVLIG
  amyloid nucleation score: inactive

## FRLILWPIDCAINTNRRCNR
  amyloid nucleation score: 4.38 ± 0.051

## FRLYFHPGVNGAET
  amyloid nucleation score: -0.356 ± 0.64

## FRNTWFCFLLKLLTS
  amyloid nucleation score: -0.818 ± 0.42

## FRRCGPDGGIWLDLAACKKI
  amyloid nucleation score: 0.1 ± 0.38

## FRVIYDRHTGILRSHERAKG
  amyloid nucleation score: -0.551 ± 0.35

## FRVPF
  amyloid nucleation score: 2.03 ± 0.24

## FRVTIMVIQNSPTVSPGLAG
  amyloid nucleation score: 4.31 ± 0.08

## FRWGFVSPDRSIGDVFLQLC
  amyloid nucleation score: -0.137 ± 1.1

## FRYAVPMCTFFADYFMSDQS
  amyloid nucleation score: inactive

## FRYHRTSCQSHSVWRTFTSF
  amyloid nucleation score: -0.884 ± 0.39

## FRYRIYGGHLTINRIIYSLV
  amyloid nucleation score: -0.702 ± 1.1

## FSCSLQRIGEMSRDKSYTPA
  amyloid nucleation score: 0.503 ± 0.66

## FSCSSDCLIFVSHRNRVLLN
  amyloid nucleation score: -0.596 ± 0.37

## FSFSEHRL
  amyloid nucleation score: 0.045 ± 0.79

## FSGFSLRSPTTRGGVCGKTV
  amyloid nucleation score: 0.575 ± 0.47

## FSGSIVIAGGIVSMRDPGLR
  amyloid nucleation score: -0.596 ± 0.79

## FSHYLSRRGRPYHANCKEAL
  amyloid nucleation score: -0.922 ± 0.39

## FSIGCVMGLAINLSGFALWV
  amyloid nucleation score: 1.84 ± 0.14

## FSIYYRGPRQVSTYRDLIPV
  amyloid nucleation score: -0.429 ± 0.37

## FSLCANCNIMMPRSFLSYT
  amyloid nucleation score: 5.24 ± 0.078

## FSLLD
  amyloid nucleation score: -0.264 ± 0.45

## FSRICKAMYQKSGYKINGIN
  amyloid nucleation score: -0.283 ± 1

## FSRMPLMDESFWFTCSICVM
  amyloid nucleation score: 2.64 ± 0.068

## FSRYGRMRFLHCSTFSLMPI
  amyloid nucleation score: -0.07 ± 0.76

## FSSIDWLCRRCSQGNRAGID
  amyloid nucleation score: 0.371 ± 0.66

## FSSSWKGRFVNNSRVVGKSR
  amyloid nucleation score: -0.367 ± 0.43

## FSTQGTPSSSLDWLNRLTVW
  amyloid nucleation score: 0.102 ± 0.36

## FSVCHVQDCSSAGRMYYLRL
  amyloid nucleation score: 3.98 ± 0.055

## FSVIICVTALVWACCCTRIV
  amyloid nucleation score: 1.09 ± 0.36

## FSVLWEMDRLVHG
  amyloid nucleation score: 0.95 ± 0.29

## FSWLSPMWYMLNDRKLYGNP
  amyloid nucleation score: 0.779 ± 0.42

## FSWSYDVDIT
  amyloid nucleation score: inactive

## FSYPGWFGFRS
  amyloid nucleation score: inactive

## FSYQSHY
  amyloid nucleation score: 0.466 ± 0.23

## FSYRCFINTSQFYSAIKIFL
  amyloid nucleation score: 0.691 ± 0.14

## FTIHWRVGCTQWLEAVIGYM
  amyloid nucleation score: 4.07 ± 0.1

## FTLGANLT
  amyloid nucleation score: -0.855 ± 0.76

## FTLKINVPETGTIVLPELGS
  amyloid nucleation score: 0.235 ± 0.48

## FTLWFQTLARGGMLARNLFK
  amyloid nucleation score: -1.17 ± 0.75

## FTRTWLCIHAEYARCLGTCV
  amyloid nucleation score: 5.05 ± 0.053

## FTVKGTITVYFMVAV
  amyloid nucleation score: 2.17 ± 0.11

## FVEMYGLWPSFGVKRKVLKV
  amyloid nucleation score: -0.904 ± 0.53

## FVESVSEPALCIFKVSGYCS
  amyloid nucleation score: -0.685 ± 0.79

## FVINSCENVARTHRVCQLAM
  amyloid nucleation score: -0.115 ± 0.37

## FVIVVFRPLGKWQRLFFCNC
  amyloid nucleation score: 0.811 ± 0.21

## FVLCLDLHDESQERWETIRR
  amyloid nucleation score: 0.925 ± 0.67

## FVLHIMRLSCYCE
  amyloid nucleation score: -0.29 ± 0.45

## FVMNGPLWMTLANMSMNHNL
  amyloid nucleation score: 4.21 ± 0.06

## FVNIFIIHADYVGHRPAELR
  amyloid nucleation score: 9.092 ± 0.081

## FVRHTHFG
  amyloid nucleation score: -1.21 ± 1.1

## FVTRGSVAMTQVGYNTVIRM
  amyloid nucleation score: 5.64 ± 0.061

## FVTTENLVNSLVLNMARAKK
  amyloid nucleation score: 3.44 ± 0.097

## FVVQFMGADHAFKERFGGH
  amyloid nucleation score: 1.87 ± 0.2

## FWCGCNFVVHLYVTSSSLKP
  amyloid nucleation score: 8.006 ± 0.065

## FWIDTYGGTNFKGCICIITG
  amyloid nucleation score: 4.39 ± 0.11

## FWLSTWSFNVVYPDGEAQKS
  amyloid nucleation score: -0.303 ± 0.48

## FWLSYTDLWNNY
  amyloid nucleation score: inactive

## FWRAFMLHWGNFLLMRALHE
  amyloid nucleation score: inactive

## FWRKVCVDDRTT
  amyloid nucleation score: -0.121 ± 0.43

## FWRLWIVCIPLVYLRR
  amyloid nucleation score: 0.131 ± 1

## FWSIMWLVCPGAMWCNT
  amyloid nucleation score: 1.84 ± 0.28

## FYAIGFLIGGLHFWDWHIWF
  amyloid nucleation score: -0.189 ± 0.64

## FYECNMSQVRDFPLHMYRYS
  amyloid nucleation score: inactive

## FYIIRD
  amyloid nucleation score: -0.866 ± 0.76

## FYITRLVHFNLIYEGLGFLR
  amyloid nucleation score: 1.05 ± 0.23

## FYKGYACHITAQYNLCVDNA
  amyloid nucleation score: -0.146 ± 1

## FYLGYQTRCYSLIGDIE
  amyloid nucleation score: 3.51 ± 0.05

## FYLRFNTFVSDTNCLTDWLA
  amyloid nucleation score: 3.46 ± 0.087

## FYQFLNSNGKYTGVYGAAPR
  amyloid nucleation score: -1.01 ± 0.41

## FYRNLLTFFYGVSFN
  amyloid nucleation score: -0.807 ± 1

## FYSFLFFHPIGMFARVYKCF
  amyloid nucleation score: inactive

## FYSLLCTFPSLLTDLLLVHR
  amyloid nucleation score: -0.66 ± 0.26

## FYSTLFHFPYLVDQMYGPTI
  amyloid nucleation score: -1.29 ± 1

## FYVSAFMHIKVLYPVNNRLG
  amyloid nucleation score: 3.62 ± 0.11

## FYWNMYGDFDFDPSAPGTNG
  amyloid nucleation score: inactive

## GADGCCHNMDCGFLNINWTN
  amyloid nucleation score: 8.959 ± 0.049

## GADGTSVLDFCDSVTV
  amyloid nucleation score: -1.32 ± 0.44

## GAGPEEPDSLDEVIVT
  amyloid nucleation score: 0.202 ± 0.3

## GALGTRRFSGMCLVCESRSG
  amyloid nucleation score: 5.28 ± 0.097

## GAMTSMDVCL
  amyloid nucleation score: -0.062 ± 0.65

## GANMLETV
  amyloid nucleation score: -0.085 ± 0.47

## GATCTSCDRCIALVSGGRKR
  amyloid nucleation score: 0.313 ± 0.44

## GCDVDKVNGRRVVYPDTEGL
  amyloid nucleation score: 0.697 ± 0.81

## GCGCATGREDTPGNIGWMV
  amyloid nucleation score: 0.507 ± 0.25

## GCIIFGYLG
  amyloid nucleation score: 1.57 ± 0.16

## GCISVNCHSLLRTHAFRG
  amyloid nucleation score: 1.28 ± 0.1

## GCKSGDQDLALRNGCRKQRS
  amyloid nucleation score: 0.594 ± 0.45

## GCRGHFMYRTW
  amyloid nucleation score: inactive

## GCRHYYWMMCNLVTFMKRES
  amyloid nucleation score: 7.237 ± 0.028

## GCRRETEDVSGRLCCVVWSL
  amyloid nucleation score: 0.206 ± 0.5

## GCSWEITDVHGGRLKLAMDP
  amyloid nucleation score: 1.12 ± 0.32

## GCYISLHMCLE
  amyloid nucleation score: 3.84 ± 0.049
